We go through one molecule from patent US7588931B2, “High arachidonic acid producing strains of Yarrowia lipolytica” (E. I. du Pont de Nemours and Company, priority 2004, dated 2009).

Data set [1] relates to β-glucuronidase (GUS) reporter. The data set is described as follows: Comparative analysis of promoters by histochemical analysis of GUS expression. It counts as cell-based, Yarrowia lipolytica. The conditions noted are these: ATCC #76982 strains, MM, FIG. 5B. How it is done:
Comparative studies investigating the promoter activities of the TEF, GPD, GPDIN, GPM, GPAT, FBA, FBAIN and YAT1 promoters were performed, by synthesizing constructs comprising each promoter and the E. coli gene encoding β-glucuronidase (GUS) as a reporter gene (Jefferson, R. A. Nature. 14(342):837-838 (1989)). Then, GUS activity was measured by histochemical and fluorometric assays (Jefferson, R. A. Plant Mol. Biol. Reporter 5:387-405 (1987)) and/or by using Real Time PCR for mRNA quantitation.
Yarrowia lipolytica ATCC #76982 strains containing plasmids pY5-30, pYZGDG, pYZGMG, pDMW212 and pDMW214 were grown from single colonies in 3 mL MM at 30° C. to an OD600˜1.0. Then, 100 μl of cells were collected by centrifugation, resuspended in 100 μl of histochemical staining buffer, and incubated at 30° C. Staining buffer was prepared by dissolving 5 mg of 5-bromo-4-chloro-3-indolyl glucuronide (X-Gluc) in 50 μl dimethyl formamide, followed by the addition of 5 mL 50 mM NaPO4, pH 7.0.
In a separate experiment, Y. lipolytica Y2034 strains containing plasmids pY5-30, pYGPAT-GUS, pYAT-GUS and pDMW214 were grown from single colonies in 5 mL SD media at 30° C. for 24 hrs to an OD600˜8.0. Then, 1 mL of cells were collected by centrifugation. The remaining cultures were centrifuged and washed 2× with HGM, resuspended in 5 mL each of HGM and allowed to grow at 30° C. further. After 24 and 120 hrs, ˜0.25 mL of each culture were centrifuged to collect the cells. Cell samples were resuspended individually in 100 μl of histochemical staining buffer (supra). Zymolase 20T (5 μl of 1 mg/mL; ICN Biomedicals, Costa Mesa, Calif.) was added to each, and the mixture incubated at 30° C. […]

Data set [2] deals with β-glucuronidase (GUS) reporter. As to the kind of experiment: Relative promoter activity rank from comparative GUS reporter studies (histochemical, fluorometric and/or Real Time PCR). The class given is cell-based, Yarrowia lipolytica. Also noted: key: a ‘1’ corresponds to the promoter with lowest activity; a ‘7’ corresponds to the promoter with highest activity. The conditions noted are these: relative to other promoters. How it is done:
The activity of GPM is about the same as TEF, while the activity of GPD, FBA, FBAIN, FBAINm, GPDIN, GPAT, YAT1 and EXP1 are all greater than TEF (activity is quantified in a relative manner in the column titled “Activity Rank”, wherein a ‘1’ corresponds to the promoter with lowest activity, while a ‘7’ corresponds to the promoter with highest activity). […] GUS activity in each expressed construct was measured by histochemical and/or fluorometric assays (Jefferson, R. A. Plant Mol. Biol. Reporter 5:387-405 (1987)) and/or by use of Real Time PCR.
Background: Real-time PCR tracks product formation cycle by cycle.

B1: GPM: Y. lipolytica phosphoglycerate mutase promoter, SEQ ID NO:160 (nucleic acid, listed as Yarrowia lipolytica)
DNA: GCCTCTGAATACTTTCAACAAGTTACACCCTTCATTAATTCTCACGTGACACAGATTATTAACGTCTCGTACCAACCACAGATTACGACCCATTCGCAGTCACAGTTCACTAGGGTTTGGGTTGCATCCGTTGAGAGCGGTTTGTTTTTAACCTTCTCCATGTGCTCACTCAGGTTTTGGGTTCAGATCAAATCAAGGCGTGAACCACTTTGTTTGAGGACAAATGTGACACAACCAACCAGTGTCAGGGGCAAGTCCGTGACAAAGGGGAAGATACAATGCAATTACTGACAGTTACAGACTGCCTCGATGCCCTAACCTTGCCCCAAAATAAGACAACTGTCCTCGTTTAAGCGCAACCCTATTCAGCGTCACGTCATAATAGCGTTTGGATAGCACTAGTCTATGAGGAGCGTTTTATGTTGCGGTGAGGGCGATTGGTGCTCATATGGGTTCAATTGAGGTGGCGGAACGAGCTTAGTCTTCAATTGAGGTGCGAGCGACACAATTGGGTGTCACGTGGCCTAATTGACCTCGGGTCGTGGAGTCCCCAGTTATACAGCAACCACGAGGTGCATGGGTAGGAGACGTCACCAGACAATAGGGTTTTTTTTGGACTGGAGAGGGTTGGGCAAAAGCGCTCAACGGGCTGTTTGGGGAGCTGTGGGGGAGGAATTGGCGATATTTGTGAGGTTAACGGCTCCGATTTGCGTGTTTTGTCGCTCCTGCATCTCCCCATACCCATATCTTCCCTCCCCACCTCTTTCCACGATAATTTTACGGATCAGCAATAAGGTTCCTTCTCCTAGTTTCCACGTCCATATATATCTATGCTGCGTCGTCCTTTTCGTGACATCACCAAAACACATACAAAAATG
modifications: misc_feature: Promoter GPM
As to B1, in data set [1], the “promoter activity by histochemical staining” value was “active”. Also, the “Activity “Rank”” value in data set [2] amounted to 1.
